Assay results: PMC9418005 (Nature Microbiology, 2022)

B1: P5C3 LS monoclonal antibody (antibody, V domains shown)
VH: QMQLVQSGPEVKKPGTSVKVSCKASGFTFTSSAVQWVRQARGQRLEWIGWIVVGSGNTDYAQQFQERVTITRDMSTSTAYMELSSLGSEDTAVYYCAAPNCSGGSCYDGFDLWGQGTMVTVSS
VL: EIVLTQSPGTLSLSPGERATLSCRGSQSVRSSYLGWYQQKPGQAPRLLIYGASSRATGIPDRFSGSGSGTDFTLTISRLEPEDFAVYYCQQYGSSPWTFGQGTKVEIK
B2: P2G3 LS human IgG1 monoclonal antibody (antibody, V domains shown)
VH: EVQLVESGGGLVQPGRSLRLSCAASGFRFDDYALHWVRQAPEKGLEWVSGISWNSNNIGYAESVKGRFTISRDTAKKSLYLQMNDLRAEDTALYYCVKDRHYDSSGYFVNGFDIWGQGTLVTVSA
VL: DIQLTQSPSFLSASVGDRVTVTCRASQGISSYVAWYQQKAGKAPTLLIYTASTLQSGVPSRFSGSGSGTEFTLTISSLQPEDFATYYCQQLHSYPVTFGQGTRLDIE

Legend:
[1] = target: T1, original 2019-nCoV spike trimer (SARS-CoV-2 original 2019-nCoV …, UniProt P0DTC2, 2 prolines (P986–P987) | residues 682–685 mutated to GSAS); assay: Luminex spike-ACE2 surrogate neutralization assay; conditions: both partners purified
[2] = target: Delta (B.1.617.2) variant spike trimer (SARS-CoV-2 Delta (B.1.617.2), 2 prolines (P986–P987) | residues 682–685 mutated to GSAS); assay: cell-based or functional assay
[3] = target: D614G mutant spike trimer (SARS-CoV-2 2019-nCoV D614G, D614G | 2 prolines (P986–P987) | residues 682–685 mutated to GSAS); assay: cell-based or functional assay
[4] = target: Alpha (B.1.1.7) variant spike trimer (SARS-CoV-2 Alpha (B.1.1.7), 2 prolines (P986–P987) | residues 682–685 mutated to GSAS); assay: cell-based or functional assay
[5] = target: Beta (B.1.351) variant spike trimer (SARS-CoV-2 Beta (B.1.351), 2 prolines (P986–P987) | residues 682–685 mutated to GSAS); assay: cell-based or functional assay
[6] = target: Gamma (P.1) variant spike trimer (SARS-CoV-2 Gamma (P.1), 2 prolines (P986–P987) | residues 682–685 mutated to GSAS); assay: cell-based or functional assay
[7] = target: T1, original 2019-nCoV spike trimer; assay: Luminex bead-based binding assay; conditions: both partners purified

Binder	binding result [1]	IC80, live SARS-CoV-2 cytopathic effect neutralization assay, Vero E6 cells [2] [µg/mL]	IC80, live SARS-CoV-2 cytopathic effect neutralization assay, Vero E6 cells [3] [µg/mL]	IC80, live SARS-CoV-2 cytopathic effect neutralization assay, Vero E6 cells [4] [µg/mL]	IC80, live SARS-CoV-2 cytopathic effect neutralization assay, Vero E6 cells [5] [µg/mL]	IC80, live SARS-CoV-2 cytopathic effect neutralization assay, Vero E6 cells [6] [µg/mL]	binding result [7]
B1	binds	–	–	–	–	–	–
B2	–	0.024	0.028	0.01	0.017	0.021	binds
